In article PMC12693531, “Cooperativity in Escherichia coli L-Threonine Dehydrogenase and Its Inhibition by an Antibacterial N-Pyridylpyrazolone Derivative” (International Journal of Molecular Sciences, 2025) one finds EC50, K0.5 and Vmax data, which are given here for 2 molecules.

For series [1], the target named is T1, L-threonine dehydrogenase (TDH) (Escherichia coli, UniProt P07913).
T1 sequence (P07913 1-341): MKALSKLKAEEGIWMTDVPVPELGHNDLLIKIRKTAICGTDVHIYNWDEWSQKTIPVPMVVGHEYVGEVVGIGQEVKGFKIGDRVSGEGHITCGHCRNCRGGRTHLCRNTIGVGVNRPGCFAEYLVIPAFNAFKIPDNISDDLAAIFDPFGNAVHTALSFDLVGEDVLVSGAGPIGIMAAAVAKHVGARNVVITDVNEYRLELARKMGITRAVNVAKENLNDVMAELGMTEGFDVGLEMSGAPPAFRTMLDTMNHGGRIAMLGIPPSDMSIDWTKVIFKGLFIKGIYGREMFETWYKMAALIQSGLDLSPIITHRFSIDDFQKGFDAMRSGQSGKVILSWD
Kind of series: fluorimetric NADH formation assay, titration at […] L-Thr and […] NAD+; also affinity chromatography from E. coli lysate on immobilized compound […]. It counts as biochemical.

Substrate in series [2]: C[C@@H](O)[C@H](N)C(=O)O
Kind of series: purified protein. The conditions noted are these: NAD+; Zn2+ cooperative binding of L-Thr; pH 8.4; 25.0 °C. Format: biochemical, Escherichia coli.

Substrate in series [3]: NC(=O)c1ccc[n+]([C@@H]2O[C@H](COP(=O)([O-])OP(=O)(O)OC[C@H]3O[C@@H](n4cnc5c(N)ncnc54)[C@H](O)[C@@H]3O)[C@@H](O)[C@H]2O)c1
Put plainly: purified protein. Format: biochemical, Escherichia coli. The following applies: Zn2+ non-cooperative binding; pH 8.4; 25.0 °C; varied: cofactor.

Counter-ions that a name gives are not always drawn.

As to `NCCc1c[nH]n(-c2ccccn2)c1=O` [compound 1, 4-(2-aminoethyl)-2-(pyridin-2-yl)-1,2-dihydro-3H-pyrazol-3-one dihydrochloride], the EC50 in series [1] was found to be 50 ± 10 µM.

B1: L-threonine dehydrogenase (TDH) (Escherichia coli K-12) (protein)
chain: MKALSKLKAEEGIWMTDVPVPELGHNDLLIKIRKTAICGTDVHIYNWDEWSQKTIPVPMVVGHEYVGEVVGIGQEVKGFKIGDRVSGEGHITCGHCRNCRGGRTHLCRNTIGVGVNRPGCFAEYLVIPAFNAFKIPDNISDDLAAIFDPFGNAVHTALSFDLVGEDVLVSGAGPIGIMAAAVAKHVGARNVVITDVNEYRLELARKMGITRAVNVAKENLNDVMAELGMTEGFDVGLEMSGAPPAFRTMLDTMNHGGRIAMLGIPPSDMSIDWTKVIFKGLFIKGIYGREMFETWYKMAALIQSGLDLSPIITHRFSIDDFQKGFDAMRSGQSGKVILSWD
For the molecule B1, in the series “purified protein [2]”, the K0.5 was found to be 280 ± 10 µM and the Vmax worked out at 6 µM/min. In the series “purified protein [3]”, the K0.5 came out at 43 ± 3 µM and the Vmax was 3.42 µM/min.

The term EC50 denotes the concentration at which the effect is half-maximal. High values mean weaker potency, low ones greater potency. For orientation: Vmax means the top rate of the reaction or transport when substrate is in excess.
